# Biological target: EZH2 (UniProt Q61188)
# Assay: filter
# Details: negative control RNA
# Sequence of EZH2 (Q61188 whole entry): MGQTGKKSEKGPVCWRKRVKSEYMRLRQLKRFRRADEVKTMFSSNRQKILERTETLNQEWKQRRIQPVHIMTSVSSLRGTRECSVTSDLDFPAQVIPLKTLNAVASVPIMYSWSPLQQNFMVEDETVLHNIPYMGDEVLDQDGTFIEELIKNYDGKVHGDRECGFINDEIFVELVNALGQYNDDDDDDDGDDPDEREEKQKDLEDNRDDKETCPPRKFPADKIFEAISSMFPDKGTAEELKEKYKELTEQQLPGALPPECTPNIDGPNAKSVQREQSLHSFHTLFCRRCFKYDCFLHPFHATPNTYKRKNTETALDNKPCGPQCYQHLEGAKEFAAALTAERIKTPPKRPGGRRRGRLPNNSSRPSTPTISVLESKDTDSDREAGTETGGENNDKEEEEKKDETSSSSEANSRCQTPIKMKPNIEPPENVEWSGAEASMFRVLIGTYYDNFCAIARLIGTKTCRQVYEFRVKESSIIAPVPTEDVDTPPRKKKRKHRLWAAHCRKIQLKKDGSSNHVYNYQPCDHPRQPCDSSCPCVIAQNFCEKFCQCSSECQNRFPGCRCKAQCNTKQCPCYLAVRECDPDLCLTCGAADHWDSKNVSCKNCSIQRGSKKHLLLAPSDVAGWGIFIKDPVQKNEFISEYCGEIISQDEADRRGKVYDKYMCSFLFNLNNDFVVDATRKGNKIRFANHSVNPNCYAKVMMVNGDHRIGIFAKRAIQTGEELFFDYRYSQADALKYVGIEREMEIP
substance,measurement,value
P4P6 RNA,Kd,> 3000 nM
